Biological target: T1, αE-catenin construct containing the M123 domain (UniProt P26231 1-906)
T1 sequence (looked up): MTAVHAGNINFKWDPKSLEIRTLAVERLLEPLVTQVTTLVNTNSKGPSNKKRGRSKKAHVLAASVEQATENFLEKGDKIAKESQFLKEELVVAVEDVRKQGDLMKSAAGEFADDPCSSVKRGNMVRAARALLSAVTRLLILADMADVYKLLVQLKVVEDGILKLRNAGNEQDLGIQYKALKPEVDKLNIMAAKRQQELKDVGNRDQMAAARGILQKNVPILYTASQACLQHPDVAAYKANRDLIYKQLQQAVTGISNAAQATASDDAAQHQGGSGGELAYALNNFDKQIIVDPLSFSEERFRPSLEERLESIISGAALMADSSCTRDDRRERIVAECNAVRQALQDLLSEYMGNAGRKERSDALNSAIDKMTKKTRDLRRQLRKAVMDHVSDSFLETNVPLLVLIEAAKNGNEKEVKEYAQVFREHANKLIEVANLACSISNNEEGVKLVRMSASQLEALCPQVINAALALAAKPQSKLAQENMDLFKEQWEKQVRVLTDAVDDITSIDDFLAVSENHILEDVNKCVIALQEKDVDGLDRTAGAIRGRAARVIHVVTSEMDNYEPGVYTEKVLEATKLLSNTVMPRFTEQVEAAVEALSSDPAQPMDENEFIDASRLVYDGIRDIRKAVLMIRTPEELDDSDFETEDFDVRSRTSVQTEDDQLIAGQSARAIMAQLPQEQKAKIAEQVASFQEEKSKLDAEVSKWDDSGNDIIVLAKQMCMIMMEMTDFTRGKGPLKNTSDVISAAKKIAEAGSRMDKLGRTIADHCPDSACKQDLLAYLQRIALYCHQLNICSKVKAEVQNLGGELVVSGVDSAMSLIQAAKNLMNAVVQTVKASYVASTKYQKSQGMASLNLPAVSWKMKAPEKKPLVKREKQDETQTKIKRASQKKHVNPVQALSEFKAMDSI
Test: magnetic tweezers force-jumping assay

Kd: 2 nM
koff: 0.008 s⁻¹
kon: 4.8e+06 M⁻¹ s⁻¹
B1: vinculin head domain 1 (VD1) (domain or fragment)
chain: MPVFHTRTIESILEPVAQQISHLVIMHEEGEVDGKAIPDLTAPVSAVQAAVSNLVRVGKETVQTTEDQILKRDMPPAFIKVENACTKLVRAAQMLQADPYSVPARDYLIDGSRGILSGTSDLLLTFDEAEVRKIIRVCKGILEYLTVAEVVETMEDLVTYTKNLGPGMTKMAKMIDERQQELTHQEHRVMLVNSMNTVKELLPVLISAMKIFVTTKNTKSQGIEEALKNRNFTVEKMSAEINEIIRVLQLTSWDEDAW

From PMC6727763 (Molecular Biology of the Cell, 2019)
